In patent publication US20260167721A1 (ABLEXIS, published 2026):

B1: CD3 × CD33-BspAb44 (bispecific antibody)
chain 1: EVQLVESGGGLVKPGGSLRLSCAASGFTFSRYSMNWVRQAPGKCLKWVSSISSSGSYKYYADSVKGRFTISRDNAKNSLYLQMNSLRAEDTAVYYCAREPPTLGMDYWGQGTLVTVSSGGGGSGGGGSGGGGSGGGGSNFMLTQPHSVSESPGKTVTISCTRSSGSIASNYVQWYQQRPGSSPTTVIYEDNQRPSGVPDRFSGSIDSSSNSASLTISGLKTEDEADYYCQSFDNSNRVFGCGTKLTVLDKTHTCPPCPAPEFEGGPSVFLFPPKPKDTLMISRTPEVTCVVVDVSHEDPEVKFNWYVDGVEVHNAKTKPREEQYNSTYRVVSVLTVLHQDWLNGKEYKCKVSNKALPASIEKTISKAKGQPREPQVYTLPPCREEMTKNQVSLWCLVKGFYPSDIAVEWESNGQPENNYKTTPPVLDSDGSFFLYSKLTVDKSRWQQGNVFSCSVMHEALHNHYTQKSLSLSPGK
chain 2: EVQLVQSGAEVKKPGSSVKVSCKASGYTITDSNIHWVRQAPGQSLEWIGYIYPYNGGTDYNQKFKNRATLTVDNPTNTAYMELSSLRSEDTAFYYCVNGNPWLAYWGQGTLVTVSSASTKGPSVFPLAPSSKSTSGGTAALGCLVKDYFPEPVTVSWNSGALTSGVHTFPAVLQSSGLYSLSSVVTVPSSSLGTQTYICNVNHKPSNTKVDKRVEPKSCDKTHTCPPCPAPEFEGGPSVFLFPPKPKDTLMISRTPEVTCVVVDVSHEDPEVKFNWYVDGVEVHNAKTKPREEQYNSTYRVVSVLTVLHQDWLNGKEYKCKVSNKALPASIEKTISKAKGQPREPQVCTLPPSREEMTKNQVSLSCAVKGFYPSDIAVEWESNGQPENNYKTTPPVLDSDGSFFLVSKLTVDKSRWQQGNVFSCSVMHEALHNRFTQKSLSLSPGK
chain 3: DIQLTQSPSTLSASVGDRVTITCRASESLDNYGIRFLTWFQQKPGKAPKLLMYAASNQGSGVPSRFSGSGSGTEFTLTISSLQPDDFATYYCQQTKEVPWSFGQGTKVEVKRTVAAPSVFIFPPSDEQLKSGTASVVCLLNNFYPREAKVQWKVDNALQSGNSQESVTEQDSKDSTYSLSSTLTLSKADYEKHKVYACEVTHQGLSSPVTKSFNRGEC
B2: CD3 × CD33-BspAb61 (bispecific antibody)
scFv-Fc: NFMLTQPHSVSESPGKTVTISCTRSSGSIASNYVQWYQQRPGSSPTTVIYEDNQRPSGVPDRFSGSIDSSSNSASLTISGLKTEDEADYYCQSFDNSNRVFGCGTKLTVLGGGGSGGGGSGGGGSGGGGSEVQLVESGGGLVKPGGSLRLSCAASGFTFSRYSMNWVRQAPGKCLKWVSSISSSGSYKYYADSVKGRFTISRDNAKNSLYLQMNSLRAEDTAVYYCAREPPTLGMDYWGQGTLVTVSSGGGGSDKTHTCPPCPAPEFEGGPSVFLFPPKPKDTLMISRTPEVTCVVVDVSHEDPEVKFNWYVDGVEVHNAKTKPREEQYNSTYRVVSVLTVLHQDWLNGKEYKCKVSNKALPASIEKTISKAKGQPREPQVYTLPPCREEMTKNQVSLWCLVKGFYPSDIAVEWESNGQPENNYKTTPPVLDSDGSFFLYSKLTVDKSRWQQGNVFSCSVMHEALHNHYTQKSLSLSPGK
heavy: B1 chain 2
light: B1 chain 3
B3: CD3 × CD33-BspAb50 (bispecific antibody)
scFv-Fc: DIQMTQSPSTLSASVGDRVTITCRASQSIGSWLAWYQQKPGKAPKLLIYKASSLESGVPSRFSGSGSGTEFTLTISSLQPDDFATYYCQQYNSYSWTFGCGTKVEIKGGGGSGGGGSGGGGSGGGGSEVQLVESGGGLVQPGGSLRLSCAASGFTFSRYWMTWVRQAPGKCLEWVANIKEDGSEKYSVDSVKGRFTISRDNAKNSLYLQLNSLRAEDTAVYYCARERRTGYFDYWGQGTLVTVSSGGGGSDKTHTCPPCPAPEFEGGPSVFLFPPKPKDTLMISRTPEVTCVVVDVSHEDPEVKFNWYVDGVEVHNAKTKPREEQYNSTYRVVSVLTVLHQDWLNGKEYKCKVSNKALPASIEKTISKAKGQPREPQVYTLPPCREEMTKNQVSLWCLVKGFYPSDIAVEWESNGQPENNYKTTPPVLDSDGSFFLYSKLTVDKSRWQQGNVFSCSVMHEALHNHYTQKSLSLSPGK
heavy: B1 chain 2
light: B1 chain 3
B4: CD3 × CD33-BspAb48 (bispecific antibody)
chain 1: QVTLKESGPGILQPSQTLSLTCSFSGFSLSTFGMGVGWIRQPSGKCLEWLAHIWWDDDKYYNPALKSRLTISKDTSKNQVFLKIANVDTADTATYYCARLGYYPYWFFDVWGTGTTVTVSSGGGGSGGGGSGGGGSGGGGSNFMLTQPHSVSESPGKTVTIACTRSSGSIASNYVQWYQQRPGSSPTTVIYEDNQRPSGVPDRFSGSIDSSSNSASLTISGLKTEDEADYYCQSYDSSNQVFGCGTKLTVLDKTHTCPPCPAPEFEGGPSVFLFPPKPKDTLMISRTPEVTCVVVDVSHEDPEVKFNWYVDGVEVHNAKTKPREEQYNSTYRVVSVLTVLHQDWLNGKEYKCKVSNKALPASIEKTISKAKGQPREPQVYTLPPCREEMTKNQVSLWCLVKGFYPSDIAVEWESNGQPENNYKTTPPVLDSDGSFFLYSKLTVDKSRWQQGNVFSCSVMHEALHNHYTQKSLSLSPGK
chain 2: B1 chain 2
chain 3: B1 chain 3
B5: CD3 × CD33-BspAb37 (bispecific antibody)
chain 1: not shown
chain 2: B1 chain 2
chain 3: B1 chain 3
B6: CD3 × CD33-BspAb51 (bispecific antibody)
chain 1: not shown
chain 2: B1 chain 2
chain 3: B1 chain 3
B7: CD3 × CD33-BspAb62 (bispecific antibody)
scFv-Fc: NFMLTQPHSVSESPGKTVTISCTRSSGSIASNYVQWYQQRPGSSPTTVIYEDNQRPSGVPDRFSGSIDSSSNSASLTISGLKTEDEADYYCQSYDSSNHVFGCGTKLTVLGGGGSGGGGSGGGGSGGGGSEVQLVESGGGLVQPGGSLRLSCAASGFTFSRYSMNWVRQAPGKCLEWVSYISSSSSSIYYADSVKGRFTISRDNAKNSLYLQMNSLRDEDTAVYYCARDRRATLDYWGQGTLVTVSSGGGGSDKTHTCPPCPAPEFEGGPSVFLFPPKPKDTLMISRTPEVTCVVVDVSHEDPEVKFNWYVDGVEVHNAKTKPREEQYNSTYRVVSVLTVLHQDWLNGKEYKCKVSNKALPASIEKTISKAKGQPREPQVYTLPPCREEMTKNQVSLWCLVKGFYPSDIAVEWESNGQPENNYKTTPPVLDSDGSFFLYSKLTVDKSRWQQGNVFSCSVMHEALHNHYTQKSLSLSPGK
heavy: B1 chain 2
light: B1 chain 3
B8: CD3 × CD33-BspAb45 (bispecific antibody)
chain 1: EVQLVESGGGLVQPGGSLRLSCAASGFTFSRYSMNWVRQAPGKCLEWVSYISSSSSSIYYADSVKGRFTISRDNAKNSLYLQMNSLRDEDTAVYYCARDRRATLDYWGQGTLVTVSSGGGGSGGGGSGGGGSGGGGSNFMLTQPHSVSESPGKTVTISCTRSSGSIASNYVQWYQQRPGSSPTTVIYEDNQRPSGVPDRFSGSIDSSSNSASLTISGLKTEDEADYYCQSYDSSNHVFGCGTKLTVLDKTHTCPPCPAPEFEGGPSVFLFPPKPKDTLMISRTPEVTCVVVDVSHEDPEVKFNWYVDGVEVHNAKTKPREEQYNSTYRVVSVLTVLHQDWLNGKEYKCKVSNKALPASIEKTISKAKGQPREPQVYTLPPCREEMTKNQVSLWCLVKGFYPSDIAVEWESNGQPENNYKTTPPVLDSDGSFFLYSKLTVDKSRWQQGNVFSCSVMHEALHNHYTQKSLSLSPGK
chain 2: B1 chain 2
chain 3: B1 chain 3

Target: T1, CD3 on Jurkat wild-type cells (UniProt P07766 23-207; P04234 22-171; P09693 23-182)
T1 construct: whole, on cells; also called Jurkat WT
T1 sequence (P07766 23-207, chain 1 of 3): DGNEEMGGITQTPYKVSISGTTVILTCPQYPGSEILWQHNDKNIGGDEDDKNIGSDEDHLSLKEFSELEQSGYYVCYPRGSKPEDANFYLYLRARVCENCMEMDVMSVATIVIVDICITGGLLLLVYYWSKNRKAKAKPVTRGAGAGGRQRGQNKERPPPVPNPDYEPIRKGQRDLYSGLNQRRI
T1 sequence (P04234 22-171, chain 2 of 3): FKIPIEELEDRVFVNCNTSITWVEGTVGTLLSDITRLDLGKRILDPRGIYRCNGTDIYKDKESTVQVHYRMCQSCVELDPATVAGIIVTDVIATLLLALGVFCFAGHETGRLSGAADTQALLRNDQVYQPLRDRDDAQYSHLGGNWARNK
T1 sequence (P09693 23-182, chain 3 of 3): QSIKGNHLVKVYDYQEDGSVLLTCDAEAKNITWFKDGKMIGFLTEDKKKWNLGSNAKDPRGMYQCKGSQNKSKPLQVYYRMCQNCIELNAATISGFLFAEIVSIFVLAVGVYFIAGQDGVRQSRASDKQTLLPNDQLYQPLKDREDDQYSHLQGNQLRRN
Test: flow cytometry on Jurkat WT cells, antibody at 1 ug/ml

Binder	flow cytometry signal
B1	113000
B2	95600
B3	9700
B4	4140
B5	10900
B6	12000
B7	62500
B8	19200

Target: T1, CD3 on Jurkat wild-type cells
Test: flow cytometry on Jurkat WT cells, antibody at 10 ug/ml

Binder	flow cytometry signal
B1	84800
B2	84800
B3	33900
B4	10800
B5	32800
B6	24300
B7	59000
B8	38300

Target: T2, CD33 on KILR-HL60 cells (UniProt P20138 18-364, limits assumed)
T2 construct: whole, on cells; Target of the gemtuzumab arm; also called CD33 expressing cells
T2 sequence (P20138 18-364 limits assumed): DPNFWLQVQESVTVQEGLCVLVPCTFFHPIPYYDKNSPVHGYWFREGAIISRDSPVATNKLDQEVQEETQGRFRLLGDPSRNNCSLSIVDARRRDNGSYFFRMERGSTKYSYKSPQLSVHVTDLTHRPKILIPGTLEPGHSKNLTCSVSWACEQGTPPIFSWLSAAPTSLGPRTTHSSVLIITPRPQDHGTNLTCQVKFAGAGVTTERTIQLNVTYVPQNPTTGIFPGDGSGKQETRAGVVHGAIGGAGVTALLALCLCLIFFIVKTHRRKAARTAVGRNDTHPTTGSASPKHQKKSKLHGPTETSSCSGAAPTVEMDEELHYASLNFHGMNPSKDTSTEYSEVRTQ
Test: flow cytometry on KILR-HL60 (CD33 expressing) cells, antibody at 1 ug/ml

Binder	flow cytometry signal
B1	640000
B2	621000
B3	475000
B4	566000
B5	486000
B6	509000
B7	295000
B8	640000

Target: T2, CD33 on KILR-HL60 cells
Test: flow cytometry on KILR-HL60 (CD33 expressing) cells, antibody at 10 ug/ml

Binder	flow cytometry signal
B1	475000
B2	538000
B3	465000
B4	483000
B5	758000
B6	691000
B7	595000
B8	741000
